Series [1] deals with T1, gene 5 protein (g5p) (bacteriophage M13, UniProt P69544 P69544:1-87).
T1 sequence: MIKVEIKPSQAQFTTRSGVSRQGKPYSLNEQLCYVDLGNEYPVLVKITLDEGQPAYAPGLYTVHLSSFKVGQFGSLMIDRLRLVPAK
In words: g5p-dependent nanoparticle assembly by DLS, UV-vis, TEM; 10 mM Tris-HCl pH 7.44, 200 mM NaCl. As to conditions: tags: His-tag (pET-30b, expressed in E. coli BL21-DE3; gene from NEB M13); chain copies: 2 inferred (homodimer). How it is done:
(§1) The SP band is associated with isolated Au and assembled nanostructures. After adding increased g5p concentrations, the SP band at 525 nm of isolated ssDNA-Au was red-shifted with band broadening, indicative of either a decrease in interparticle distances or an increase of aggregate size (FIG. 7B). The higher extinction intensity observed over 10 μM g5p is due to a […] of the solution's turbidity resulting from the formation of larger aggregates. […] The sizes and morphologies of the g5p-mediated ssDNA-Au assemblies were studied using transmission electron microscopy (TEM) (FIG. 7C). […] Polyhistidine-tagged YieF protein (MW=20 KDa) was used as a negative control, for which no aggregation of particles was observed during DLS and UV-vis studies (FIGS. 8A and 8B).
(§2) The DNA for the binding study was obtained by annealing of two ssDNA with sequences, 5'-GACCACATACCGCAC-CATC(T)$32$CTGCTACGAGACTTC-3' (SEQ ID NO. 7) and 5'-(T)$32$GATGGTGCGGTATGTGGTC-3' (SEQ ID NO. 8), respectively. The annealed DNA (1 µM) was incubated with g5p at 37° C. for 10 minutes. […] Relative intensities of the DNA bands were analyzed after ethidium bromide staining Characterization UV-Visible spectra were obtained using a PerkinElmer Lambda 35 spectrometer. DLS was measured using a Malvern Zetasizer ZS instrument that is equipped with a 633 nm laser and a backscattering detector at 173°. […]

The target of another series is T2, YieF (UniProt P0AGE6 P0AGE6:1-188).
T2 sequence: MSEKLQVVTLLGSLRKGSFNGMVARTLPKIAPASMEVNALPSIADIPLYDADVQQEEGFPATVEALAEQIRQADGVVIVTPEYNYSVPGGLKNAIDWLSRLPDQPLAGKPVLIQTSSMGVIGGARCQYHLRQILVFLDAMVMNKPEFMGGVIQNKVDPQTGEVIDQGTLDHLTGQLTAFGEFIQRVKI
In words: negative control, no aggregation by DLS (2.5 uM) or UV-vis (15 uM). As to conditions: tags: polyhistidine. Here is the method:
as §1, §2

In series [2] the target is T1, gene 5 protein (g5p). In words: EMSA; three sequential stages: anti-parallel ssDNA region shifted at 10 uM g5p, then ssDNA tail, then dsDNA over 35 uM; 1 uM DNA, 10 mM Tris-HCl pH 7.4, 200 mM NaCl. Conditions: tags: His-tag (pET-30b, expressed in E. coli BL21-DE3; gene from NEB M13); chain copies: 2 inferred (homodimer); 19 bp duplex, two anti-parallel T32 single strands, 3' ssDNA tail of 15 nt. Here is the method:
To study the distinct binding properties of g5p and its preferential DNA topology, an exemplary DNA structure with three distinct regions has been designed: a 19 base paired double-stranded DNA (dsDNA) region, followed by a 32 nucleotide anti-parallel poly-T ssDNA region, and a 3' extended ssDNA tail of 15 nucleotides. The DNA structure ([…]) was titrated with g5p (in 10 mM Tris-HCl, pH=7.4, 200 mM NaCl), and g5p binding was studied using the electrophoretic mobility shift assay. […] Since g5p has a much lower affinity to dsDNA than to ssDNA at high salt concentration, the following order of occupancy is hypothesized: binding to the anti-parallel ssDNA region with a large shift of the DNA band at 10 μM g5p, followed by binding to the ssDNA tail, and finally to dsDNA at g5p concentrations over 35 μM. Thus, g5p binds to ssDNA regions before it binds to the dsDNA region, and its binding affinity for the anti-parallel region is slightly higher than for the ssDNA tail. […] By comparing the intensity of the band in the presence of 30 μM g5p to the band under control conditions without g5p, the hybridization efficiency for C-ssDNA to the g5p-complexed ssDNA tail was determined to be approximately 82%, indicating effective DNA hybridization without significant inhibition by g5p. […]

Series [3] addresses T1, gene 5 protein (g5p). In words: EMSA; C-ssDNA added to the complex; 20 and 30 uM g5p shifts collapse to one band of higher mobility (anti-parallel region bound); tail hybridization about 82% at 30 uM g5p. As to conditions: tags: His-tag (pET-30b, expressed in E. coli BL21-DE3; gene from NEB M13); chain copies: 2 inferred (homodimer); 19 bp duplex, anti-parallel T32 strands, tail hybridized as 15 bp duplex. Here is the method: Since g5p has a much lower affinity to dsDNA than to ssDNA at high salt concentration, the following order of occupancy is hypothesized: binding to the anti-parallel ssDNA region with a large shift of the DNA band at 10 μM g5p, followed by binding to the ssDNA tail, and finally to dsDNA at g5p concentrations over 35 μM. Thus, g5p binds to ssDNA regions before it binds to the dsDNA region, and its binding affinity for the anti-parallel region is slightly higher than for the ssDNA tail. To study the effect of g5p association on forming dsDNA heteroduplexes, and confirm the proposed binding order to the ssDNA regions, an equal amount (1 μM) of C-ssDNA that can hybridize to the ssDNA tail was added. […] Smearing of the band after C-ssDNA addition at 45 μM g5p supports g5p binding to dsDNA at this concentration. […]
The DNA for the binding study was obtained by annealing of two ssDNA with sequences, 5'-GACCACATACCGCAC-CATC(T)$32$CTGCTACGAGACTTC-3' (SEQ ID NO. 7) and 5'-(T)$32$GATGGTGCGGTATGTGGTC-3' (SEQ ID NO. 8), respectively. […] Relative intensities of the DNA bands were analyzed after ethidium bromide staining Characterization UV-Visible spectra were obtained using a PerkinElmer Lambda 35 spectrometer. DLS was measured using a Malvern Zetasizer ZS instrument that is equipped with a 633 nm laser and a backscattering detector at 173°.
Background: A gel shift assay detects complexes by their altered migration in electrophoresis.

B1: ssDNA on gold nanoparticles (ssDNA-Au) (ssDNA)
DNA: TTTTTTTTTTTTTTTTAACCTAACCTTCAT
modifications: 5'-HS-C3H6, about 50 copies per gold nanoparticle
As to B1, the binding result with gene 5 protein (g5p) [1] was “binds”; in the series with YieF, “no binding”.

B2: annealed 19 bp dsDNA / anti-parallel poly-T32 / 15 nt ssDNA tail (structured_DNA)
DNA 1: GACCACATACCGCACCATCTTTTTTTTTTTTTTTTTTTTTTTTTTTTTTTTCTGCTACGAGACTTC
DNA 2: TTTTTTTTTTTTTTTTTTTTTTTTTTTTTTTTGATGGTGCGGTATGTGGTC
Take B2: the binding result in the series with gene 5 protein (g5p) [2] was “binds”.

B3: annealed DNA with tail hybridized to C-ssDNA (structured_DNA)
DNA 1: GACCACATACCGCACCATCTTTTTTTTTTTTTTTTTTTTTTTTTTTTTTTTCTGCTACGAGACTTC
DNA 2: TTTTTTTTTTTTTTTTTTTTTTTTTTTTTTTTGATGGTGCGGTATGTGGTC
DNA 3: GAAGTCTCGTAGCAG
With B3, the binding result with gene 5 protein (g5p) [3] is “binds”.

The values above are taken from US8729012, “Controllable assembly and disassembly of nanoparticle systems via protein and DNA agents” (Brookhaven Science Associates, LLC).
